{"source": "patent US20050214207A1", "about": "(published 2005)", "key": {"[1]": {"biological_target": "T1, TR7-Fc fusion protein (Ala-Asp-Pro fused to E52-G184 of TR7, SEQ ID NO:3, fused to the Fc region) (human, UniProt O14763 52-184)", "T1 construct": "Expressed in baculovirus with the GP signal peptide; it is read as TR7; also called TR7-Fc receptor; TRAILR2; not shown: Fc region", "assay": "competition ELISA: inhibition of biotinylated TRAIL binding to TR7-Fc captured on anti-human Fc", "description": "Goat anti-human Fc is diluted to 0.1 micrograms/ml in coating buffer. An Immulon 4 microplate is coated with 100 microliters per well of the Goat anti-human Fc solution and incubated overnight at 4° C. The coating solution is decanted from the plate, and blocking solution is dispensed at 200 microliters per well. The plate is incubated at room temperature for 1 hour. After the 1 hour incubation period, the blocking solution is decanted from the plate and 1 microgram/mL of TR7-Fc is dispensed at 100 microliters/well and incubated for 2 hours at room temperature. After the incubation, the plate is washed five times manually using a Wheaton manifold.\nAntibodies corresponding to scFvs of the present invention are (previously) prepared in a low binding dilution plate using diluent. The antibodies are prepared in duplicate and are diluted from the stock concentration with 2.5 fold dilutions for the 7 subsequent wells. If a purified form of the antibody is available, the starting concentration is 5 micrograms/mL. The positive control (TR7-Fc) is diluted from 5 micrograms/mL. 100 microliters is transferred into the ELISA plate and pre-incubated for 30 minutes at room temperature. […]\nAfter the one-hour incubation, the plate is decanted and washed with PBST five times and blotted. […] The plate is immediately read at 450 nm using the spectrometer from Molecular Devices."}, "[2]": {"biological_target": "T1, TR7-Fc fusion protein (Ala-Asp-Pro …)", "assay": "SPR (BIAcore 2000), TR7-Fc amine-coupled to CM5 chip, antibody as analyte, separate fitting of the dissociation phase", "description": "(§1) TR7-Fc and TR2-Fc were immobilized on individual flow cells of a BIAcore CM5 sensor chip (BIAcore, Cat# BR-1000-14). Amine coupling (BIAcore, Cat# BR-1000-50) was used to covalently bind each receptor to the dextran matrix on the sensor chip. The optimal pH for this coupling was analyzed using preconcentration experiments ranging from pH 4-7 and was determined to be pH 4.0 based on the slope of the binding. The actual coupling was performed using the manual injection mode. A target level of 200 relative units (RU) was set as the goal for both flow cells. A response of 1000 RU correlates to a change in surface concentration of about 1 ng/mm² for proteins. The molecular weight of the TR7 and TR2 fusion proteins was nearly identical. The concentration of both receptors for immobilization was 5 μg/ml in 10 mM acetate, pH 4.0 (BIAcore, Cat# BR-1003-49). The entire experiment was performed at a flow rate of 5 μL/min. Contact time for the N-ethyl-N′-(3-dimethylaminoprolpyl)carbodiimide hydrochloride/Ethanolamine hydrochloride-NaOH, pH 8.5 (EDC/NHS) injection was 3 minutes. […]\n(§2) Analysis of CM005G08 kinetics was performed using the BIAcore 2000 instrument with the 2000 control software, version 3.1.1. […] The off rate of CM005G08 was determined by washing the complex in the presence of HBS-EP buffer for 10 minutes. […]\n(§3) The binding data were analyzed using the BIAevaluation software, version 3.1. […]"}, "[3]": {"biological_target": "T1, TR7-Fc fusion protein (Ala-Asp-Pro …)", "assay": "SPR (BIAcore 2000), TR7-Fc amine-coupled to CM5 chip, antibody as analyte, 1:1 Langmuir model, double-reference subtraction, mean±STD of three experiments", "description": "as §1, §2, §3"}}, "note": "“And” between values parts separate entries of the source, which are not always exact repeats. Identical values can stand only once."}
{"binder": "CM005G08 whole IgG1 antibody comprising the VH and VL domains of the CM005G08 scFv (antibody, V domains shown, Two lots were tested; also called CM05G08; IgG1 format of CM005G08) VH: EVQLVQSGGGVERPGGSLRLSCAASGFTFDDYGMSWVRQAPGKGLEWVSGINWNGGSTGYADSVKGRVTISRDNAKNSLYLQMNSLRAEDTAVYYCAKILGAGRGWYFDLWGKGTTVTVSS VL: SSELTQDPAVSVALGQTVRITCQGDSLRSYYASWYQQKPGQAPVLVIYGKNNRPSGIPDRFSGSSSGNTASLTITGAQAEDEADYYCNSRDSSGNHVVFGGGTKLTVLG", "values": [{"measurement": "IC50", "setting": "[1]", "value": "5.3 nM and 6.89 nM"}, {"measurement": "koff", "setting": "[2]", "value": "0.00266 s⁻¹ and 0.00268 s⁻¹"}, {"measurement": "Kd", "setting": "[3]", "value": "0.25 nM and 0.33 nM"}]}
